Earlier results, collected in article PMC6962051.

Biological target: linear di-ubiquitin (Homo sapiens) (UniProt P0CG47)
Experiment: isothermal titration calorimetry

NEMO CoZi, sequence (Q9Y6K9 258-350): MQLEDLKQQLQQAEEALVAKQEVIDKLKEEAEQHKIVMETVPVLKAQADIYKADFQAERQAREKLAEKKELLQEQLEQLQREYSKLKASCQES

Kd: 2400 nM
Substance: NEMO CoZi (from UniProt Q9Y6K9)
